Measured values taken from US20140378374A1, “METHODS OF TREATMENT” (GlaxoSmithKline Intellectual Property (No.2) Limited, priority 2013, published 2014).

Experiment: Phase 1 single-dose (30 mg subcutaneous) pharmacokinetics and safety study in T2DM with normal or varying degrees of renal impairment
Assay type: in vivo, human
Conditions: for AUC Ratio / Cmax Ratio: single 30 mg dose
Description: A Phase 1, open-label, nonrandomized study evaluated the pharmacokinetics of a single 30 mg subcutaneous dose of albiglutide in subjects with T2DM and normal or varying degrees of renal impairment. Eligible subjects were men and women from 30 to 75 years of age (inclusive) with T2DM and HbA1c between ≧6.0% and ≦10.5%. […] Participants on hemodialysis were on stable treatment for at least 3 months before screening and had serum albumin ≧[…] and hemoglobin ≧8 g/dL.
Venous blood samples for determination of albiglutide were drawn on Day 1 prior to dosing and 6 hours after dosing and on Days 2, 3, 5, 10, 14, 21, 29, and 42 after administration of albiglutide (30 mg subcutaneous). In subjects undergoing hemodialysis, Day 1 was planned to be the day before a scheduled hemodialysis day (Day 2). Following blood sampling on Day 1 (before dosing and 6 hours after dosing) blood samples were taken before and after each dialysis procedure over the next 7 weeks. For all subjects, each blood sample was about 3 mL and drawn into an EDTA collection tube, immediately placed on crushed ice and water, and centrifuged for 10 minutes at 1,500 g at 4° C. Approximately 1 mL of plasma was transferred to a sterile 1.8-mL tube (Nunc® CryoTube®, Sigma-Aldrich) and stored at −70° C. until assaying.
Albiglutide PK samples collected in participants undergoing hemodialysis also were analyzed to assess predialysis and postdialysis changes in albumin concentrations.
Plasma samples were analyzed for albiglutide by using a validated enzyme-linked immunosorbent assay (ELISA) and were diluted 100-fold with sample buffer before analysis. Albiglutide was captured using a rabbit anti-human GLP-1 (7-36) amide and detected using a rabbit anti-HSA conjugated to biotin. ELISA experiments were performed using the Furoninc® 96 well plate (Nunc, cat. #437796) with the following steps. 1) […], antibody coating solution of 5.0 μg/mL anti-GLP-1 (7-36) Amide (human) IgG (Peninsula Laboratories, cat. # T-4111) in 50 mM sodium carbonate-bicarbonate buffer pH 9.4 was added to each well, sealed with aseptic sealing tape and incubated for 24 hours (±12 hours) at nominally 4° C. The microtiter plate was washed 5 times with […] wash buffer (10 mM Sodium Phosphate, 150 mM NaCl, 0.05% Tween 20, pH 7.5) using plate washer; 2) […] blocking buffer of SuperBlock in PBS (SuperBlock (Pierce, cat. #37515) in PBS, 5.0% Rabbit Plasma) was added to each well, sealed and incubated with constant shaking for approximately 1.5 hour (±30 minutes) at ambient room temperature and the microtiter plate washed; 3) 100 mL of either standards, quality controls (QCs) or samples were added per well, sealed, incubated and washed; 4) 100 mL of Detection Antibody solution of Biotin Labelled Rabbit polyclonal to Human Serum Albumin (NOVUS Biologicals, cat. # NB 100-1674) was added per well, sealed, incubated and washed; 5) 100 mL of Reporter Tag solution (Streptavidin-HRPO Conjugate, Caltag, cat. # SA1007) was added per well, sealed, incubated and washed; 6) 100 mL of Development Substrate Pico (SuperSignal ELISA, Pierce, cat. #37070) was added, incubated and the plate read using plate reader (Wallac 1420 Victor Multilabel Counter, Perkin Elmer Life Sciences, Boston, Mass.). Sample concentrations were determined by interpolation from the standard curve, which was fitted using a weighted (1/x), 4-parameter logistic equation. The validated range of this assay (based on 10 μL of human plasma) is 50 ng/mL to 1,500 ng/mL.
During the single dose study and 3 of the phase 3 trials (Harmony 2, 4 and 5), the assay process was modified from manual pipetting of samples to robotic pipetting.
Pharmacokinetic calculations were based on actual sampling collection times. All statistical analyses of pharmacokinetic parameters were performed using SAS Version 9.1 or later (SAS Institute, Inc., Cary, N.C.). […]

Substance: Albiglutide: recombinant fusion protein of 2 copies of modified human GLP-1 (fragment 7-36(A8G)) genetically fused in series to recombinant human serum albumin
- Any event (Hemodialysis (n = 10)): 8 (80) n (%)
- Dizziness (Hemodialysis (n = 10)): 2 (20) n (%)
- Fatigue (Hemodialysis (n = 10)): 2 (20) n (%)
- Headache (Hemodialysis (n = 10)): 3 (30) n (%)
- Hypoglycemia, Documented Symptomatic (Hemodialysis (n = 10)): 1 (10) n (%)
- Nausea (Hemodialysis (n = 10)): 5 (50) n (%)
- Total no. of events (Hemodialysis (n = 10)): 38 n
- Vomiting (Hemodialysis (n = 10)): 5 (50) n (%)
- AUC Ratio (Hemodialysis:Normal): 0.99
- Cmax Ratio (Hemodialysis:Normal): 1.11
- AUC Ratio (Hemodialysis:Normal, listed as albiglutide): 0.99 (0.63, 1.57)
- Any event (Moderate (n = 11)): 3 (27.3) n (%)
- Dizziness (Moderate (n = 11)): 0 n (%)
- Fatigue (Moderate (n = 11)): 0 n (%)
- Headache (Moderate (n = 11)): 0 n (%)
- Hypoglycemia, Documented Symptomatic (Moderate (n = 11)): 0 n (%)
- Nausea (Moderate (n = 11)): 0 n (%)
- Total no. of events (Moderate (n = 11)): 4 n
- Vomiting (Moderate (n = 11)): 0 n (%)
- AUC Ratio (Moderate:Normal): 1.32
- Cmax Ratio (Moderate:Normal): 1.21
- AUC Ratio (Moderate:Normal, listed as albiglutide): 1.32 (0.96, 1.80)
- Any event (Normal (n = 10)): 8 (80) n (%)
- Dizziness (Normal (n = 10)): 0 n (%)
- Fatigue (Normal (n = 10)): 0 n (%)
- Headache (Normal (n = 10)): 0 n (%)
- Hypoglycemia, Documented Symptomatic (Normal (n = 10)): 0 n (%)
- Nausea (Normal (n = 10)): 0 n (%)
- Total no. of events (Normal (n = 10)): 8 n
- Vomiting (Normal (n = 10)): 0 n (%)
- Any event (Severe (n = 10)): 4 (40) n (%)
- Dizziness (Severe (n = 10)): 0 n (%)
- Fatigue (Severe (n = 10)): 0 n (%)
- Headache (Severe (n = 10)): 1 (10) n (%)
- Hypoglycemia, Documented Symptomatic (Severe (n = 10)): 2 (20) n (%)
- Nausea (Severe (n = 10)): 0 n (%)
- Total no. of events (Severe (n = 10)): 8 n
- Vomiting (Severe (n = 10)): 0 n (%)
- AUC Ratio (Severe:Normal): 1.39
- Cmax Ratio (Severe:Normal): 1.23
- AUC Ratio (Severe:Normal, listed as albiglutide): 1.39 (1.03, 1.89)
- subjects with a hypoglycemic SAE (hemodialysis group, insulin-treated subject): One
- half-life, geometric mean (participants with impaired renal function): 141 to 145 h
- half-life, geometric mean (participants with normal renal function): 122 h
- observed increase in AUC (patients with severe renal impairment): 30 to 40%
- median time of peak concentrations (Tmax) (regardless of the level of renal impairment): 88 to 96 h
